B1: Clone 49A 4-1BB antibody (IgG1) (antibody, V domains shown)
VH: VKLQQSGPELVKPGASVKISCKASGYTFTDYYMNWVKESHGKSLEWIGDINPNNGGSTYYNQKFKGKATLTVEKSSSTAFMELRSLTSEDSAVYYCARSLYGSTYYFDYWGQGTPLTVSS
VL: DIVLTQSPASLAVSLGQRATISCKASQSVDYDGDSYMNWYQQKPGQPPKLLIYAASNLESGIPARFSGSGSGTDFTLNIHPVEEEDAGTYYCQQSNDDPWTFGGGTKLEIK
B2: Clone 138 4-1BB antibody (IgG2b) (antibody, V domains shown)
VH: VQLQESGGGLVKPGGSLKLSCAASGFTFSDYGMHWVRQAPEKGLEWVAYISSGSNSIYYADTVTGRFTISRDNAKNTLFLQMTSLRSEDTAMYYCASNNGYFYFDYWGQGTTLTVSS
VL: IVITQSPAILSASPGEKVTMTCRASSSVSYMHWYQQKPGSSPKPWIYATSNLASGVPARFSGSGSGTSYSLTVSRVEAEDAATYYCQQWSSDPFTFGSGTKLEIK
B3: Clone 54 4-1BB antibody (IgG2a) (antibody, V domains shown)
VH: EFQLQQSGPELVKPGASVKISCKASGYSFTDYNMNWVKQSNGKSLEWIGVINPNYGTTSYNQKFKGKATFTVDQSSSTAYMQLNSLTSEDSAVYYCARSPVEDYFDYWGQGTTLTVSS
VL: ENVLTQSPAIMSASPGEKVTMTCRARSSVSSSYLHWYQQKSGASPKLWIYSTSNLASGVPARFSGSGSGTSYSLTISSVEAEDAATYYCQQYSGYPLITFGAGTKLELKR

target: recombinant human 4-1BB (human, UniProt Q07011 24-186); assay: ELISA
Sequence (Q07011 24-186): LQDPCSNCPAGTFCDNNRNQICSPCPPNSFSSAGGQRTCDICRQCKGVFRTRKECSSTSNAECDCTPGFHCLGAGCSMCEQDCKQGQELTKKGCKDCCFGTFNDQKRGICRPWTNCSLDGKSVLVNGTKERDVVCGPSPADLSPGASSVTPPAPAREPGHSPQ

EC50 [ng/mL] | Binder
1.32 | B1
4.71 | B2
16 | B3

Source: patent publication US20260217846A1 (published 2026)
